Paper PMC9482650, “Quantitative fragmentomics allow affinity mapping of interactomes” (Nature Communications, 2022)

T1: LIN7B, Q9HAP6
T1 sequence (Q9HAP6 88-185, limits assumed, looked up): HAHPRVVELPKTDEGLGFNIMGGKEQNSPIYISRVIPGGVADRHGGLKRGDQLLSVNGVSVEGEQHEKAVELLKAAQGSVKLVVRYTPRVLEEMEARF

T2: DLG3_2, Q92796
T2 sequence (Q92796 221-321, limits assumed, looked up): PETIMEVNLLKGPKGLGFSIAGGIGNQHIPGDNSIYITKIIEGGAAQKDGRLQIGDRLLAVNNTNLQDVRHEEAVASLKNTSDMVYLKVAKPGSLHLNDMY

T3: DFNB31_1, Q9P202
T3 sequence (Q9P202 135-233, limits assumed, looked up): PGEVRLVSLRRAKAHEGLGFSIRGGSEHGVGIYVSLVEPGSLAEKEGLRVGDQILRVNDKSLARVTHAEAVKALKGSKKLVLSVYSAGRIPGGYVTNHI

T4: HTRA4, P83105
T4 sequence (P83105 378-476, limits assumed, looked up): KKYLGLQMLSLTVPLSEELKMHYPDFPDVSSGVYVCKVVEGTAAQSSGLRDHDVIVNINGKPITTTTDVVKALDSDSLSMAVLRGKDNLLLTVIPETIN

T5: NHERF3_1, Q5T2W1
T5 sequence (Q5T2W1 4-100, limits assumed, looked up): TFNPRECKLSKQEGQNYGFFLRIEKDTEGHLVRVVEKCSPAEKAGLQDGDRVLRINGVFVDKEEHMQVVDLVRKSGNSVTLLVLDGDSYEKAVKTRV

T6: MPDZ_10, O75970
T6 sequence (O75970 1624-1722, limits assumed, looked up): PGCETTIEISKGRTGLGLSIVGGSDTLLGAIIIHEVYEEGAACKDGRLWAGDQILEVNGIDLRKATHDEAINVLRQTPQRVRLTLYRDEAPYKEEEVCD

T7: SNTG1, Q9NSN8
T7 sequence (Q9NSN8 52-150, limits assumed, looked up): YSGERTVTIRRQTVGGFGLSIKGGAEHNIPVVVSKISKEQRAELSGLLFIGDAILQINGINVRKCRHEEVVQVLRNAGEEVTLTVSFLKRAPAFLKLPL

T8: RAPGEF6, Q8TEU7
T8 sequence (Q8TEU7 525-625, limits assumed, looked up): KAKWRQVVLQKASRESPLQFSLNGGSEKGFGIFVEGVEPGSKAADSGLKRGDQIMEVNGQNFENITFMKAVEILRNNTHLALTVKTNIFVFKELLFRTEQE

T9: SNTG2, Q9NY99
T9 sequence (Q9NY99 68-166, limits assumed, looked up): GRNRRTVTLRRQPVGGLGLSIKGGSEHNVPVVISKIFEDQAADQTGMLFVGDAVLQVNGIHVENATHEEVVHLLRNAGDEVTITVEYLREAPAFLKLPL

T10: SNTA1, Q13424
T10 sequence (Q13424 82-180, limits assumed, looked up): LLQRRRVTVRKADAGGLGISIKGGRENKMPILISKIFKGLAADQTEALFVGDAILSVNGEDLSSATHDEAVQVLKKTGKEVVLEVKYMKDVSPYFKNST

T11: TIAM2, Q8IVF5
T11 sequence (Q8IVF5 885-986, limits assumed, looked up): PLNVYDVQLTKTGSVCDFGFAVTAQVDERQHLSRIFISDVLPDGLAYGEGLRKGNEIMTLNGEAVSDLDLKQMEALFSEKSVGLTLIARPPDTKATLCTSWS


Key:
Assay in all cases: holdup assay
Parameters in all cases: key: below the threshold = too weak to quantify, mostly under pKd 3.1 to 4
Conditions in all cases: plain residues with an end cap or a label only (N-terminal biotin on a linker: ado-ado)
[1] = biological target: SCRIB_1, Q14160
Chain of SCRIB_1, Q14160 (Q14160 718-814): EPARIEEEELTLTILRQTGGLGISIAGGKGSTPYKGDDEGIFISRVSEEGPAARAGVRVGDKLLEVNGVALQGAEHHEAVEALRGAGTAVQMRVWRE

[2] = biological target: GRIP2_5, Q9C0E4
Chain of GRIP2_5, Q9C0E4 (Q9C0E4 544-642): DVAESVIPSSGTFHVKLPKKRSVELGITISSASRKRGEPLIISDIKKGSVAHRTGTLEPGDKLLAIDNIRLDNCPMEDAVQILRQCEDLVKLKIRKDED

[3] = biological target: T1, LIN7B, Q9HAP6
[4] = biological target: CASK, O14936
Chain of CASK, O14936 (O14936 487-570): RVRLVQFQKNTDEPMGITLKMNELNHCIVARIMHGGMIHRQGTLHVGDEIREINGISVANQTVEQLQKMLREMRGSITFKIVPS

[5] = biological target: FRMPD2_2, Q68DX3
Chain of FRMPD2_2, Q68DX3 (Q68DX3 944-1038): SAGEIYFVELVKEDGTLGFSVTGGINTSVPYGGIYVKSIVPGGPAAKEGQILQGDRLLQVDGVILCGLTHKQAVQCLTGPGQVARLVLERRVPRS

[6] = biological target: GORASP2, Q9H8Y8
[7] = biological target: DLG5_1, Q8TDM6
Chain of DLG5_1, Q8TDM6 (Q8TDM6 617-713): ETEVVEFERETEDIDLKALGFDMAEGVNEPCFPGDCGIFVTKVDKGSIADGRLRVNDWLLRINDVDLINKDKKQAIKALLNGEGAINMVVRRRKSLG

[8] = biological target: DLG4_3, P78352
Chain of DLG4_3, P78352 (P78352 306-403): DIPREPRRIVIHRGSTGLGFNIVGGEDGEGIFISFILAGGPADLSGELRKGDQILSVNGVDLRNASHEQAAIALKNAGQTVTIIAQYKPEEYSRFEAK

[9] = biological target: T2, DLG3_2, Q92796
[10] = biological target: T3, DFNB31_1, Q9P202
[11] = biological target: T4, HTRA4, P83105
[12] = biological target: T5, NHERF3_1, Q5T2W1
[13] = biological target: T6, MPDZ_10, O75970
[14] = biological target: T7, SNTG1, Q9NSN8
[15] = biological target: IL16_1, Q14005
Chain of IL16_1, Q14005 (Q14005 210-306): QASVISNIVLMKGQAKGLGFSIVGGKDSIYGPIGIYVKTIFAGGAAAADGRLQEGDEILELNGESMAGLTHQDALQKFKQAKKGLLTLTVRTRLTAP

[16] = biological target: T8, RAPGEF6, Q8TEU7
[17] = biological target: NOS1, P29475
Chain of NOS1, P29475 (P29475 9-101): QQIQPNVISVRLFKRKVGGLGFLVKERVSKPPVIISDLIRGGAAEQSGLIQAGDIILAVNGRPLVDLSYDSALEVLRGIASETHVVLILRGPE

[18] = biological target: PARD3_3, Q8TEW0
Chain of PARD3_3, Q8TEW0 (Q8TEW0 582-685): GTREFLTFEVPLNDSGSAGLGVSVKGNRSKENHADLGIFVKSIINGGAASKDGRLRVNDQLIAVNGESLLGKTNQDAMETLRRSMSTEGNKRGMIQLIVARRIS

[19] = biological target: T9, SNTG2, Q9NY99
[20] = biological target: IL16_4, Q14005
Chain of IL16_4, Q14005 (Q14005 1229-1329): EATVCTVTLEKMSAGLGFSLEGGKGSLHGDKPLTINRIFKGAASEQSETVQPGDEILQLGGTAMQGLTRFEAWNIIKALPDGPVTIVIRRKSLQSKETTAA

[21] = biological target: GOPC, Q9HD26
[22] = biological target: Inadl_8, Q8NI35
Chain of Inadl_8, Q8NI35 (Q8NI35 1425-1530): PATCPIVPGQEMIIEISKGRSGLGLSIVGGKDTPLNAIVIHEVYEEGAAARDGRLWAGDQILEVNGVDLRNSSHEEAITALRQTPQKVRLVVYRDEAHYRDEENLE

[23] = biological target: PDLIM1, O00151
Chain of PDLIM1, O00151 (O00151 1-87): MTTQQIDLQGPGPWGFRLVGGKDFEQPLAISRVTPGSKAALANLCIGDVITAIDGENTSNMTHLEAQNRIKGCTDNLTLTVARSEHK

[24] = biological target: LIMK2, P53671
Chain of LIMK2, P53671 (P53671 143-248): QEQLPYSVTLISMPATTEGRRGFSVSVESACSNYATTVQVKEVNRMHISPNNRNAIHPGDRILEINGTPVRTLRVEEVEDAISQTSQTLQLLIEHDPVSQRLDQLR

[25] = biological target: T10, SNTA1, Q13424
[26] = biological target: T11, TIAM2, Q8IVF5

Binder | pKd [1] | pKd [2] | pKd [3] | pKd [4] | pKd [5] | pKd [6] | pKd [7] | pKd [8] | pKd [9] | pKd [10] | pKd [11] | pKd [12] | pKd [13] | pKd [14] | pKd [15] | pKd [16] | pKd [17] | pKd [18] | pKd [19] | pKd [20] | further results
DTTVPESEDL [MYOZ2, Q9NPC6] | below the threshold | below the threshold | below the threshold | below the threshold | below the threshold | below the threshold | below the threshold | below the threshold | below the threshold | below the threshold | 3.8 | below the threshold | below the threshold | below the threshold | below the threshold | below the threshold | below the threshold | below the threshold | below the threshold | below the threshold | pKd [21]: below the threshold; pKd [22]: below the threshold; pKd [23]: 5.1; pKd [24]: below the threshold; pKd [25]: below the threshold; pKd [26]: below the threshold
SKSNFGSEPL [KIF17, Q9P2E2] | below the threshold | below the threshold | below the threshold | below the threshold | below the threshold | below the threshold | below the threshold | below the threshold | below the threshold | below the threshold | below the threshold | 3.94 | below the threshold | below the threshold | below the threshold | below the threshold | below the threshold | below the threshold | below the threshold | below the threshold | pKd [21]: below the threshold; pKd [22]: below the threshold; pKd [23]: below the threshold; pKd [24]: below the threshold; pKd [25]: below the threshold; pKd [26]: below the threshold
SAKVRTVTSV [RASL11B, Q9BPW5] | 4.17 | below the threshold | below the threshold | below the threshold | 3.97 | 4.56 | below the threshold | 4.93 | 4.78 | 3.77 | 4.06 | below the threshold | below the threshold | 3.62 | below the threshold | below the threshold | 3.9 | below the threshold | 3.6 | below the threshold | pKd [21]: 4.07; pKd [22]: 4.43; pKd [23]: below the threshold; pKd [24]: below the threshold; pKd [25]: below the threshold; pKd [26]: below the threshold

Second part, led by results:

pKd [1] | pKd [2] | pKd [3] | pKd [4] | pKd [5] | pKd [6] | pKd [7] | pKd [8] | pKd [9] | pKd [10] | pKd [11] | pKd [12] | pKd [13] | pKd [14] | pKd [15] | pKd [16] | pKd [17] | pKd [18] | pKd [19] | pKd [20] | Binder | further results
below the threshold | below the threshold | below the threshold | below the threshold | below the threshold | below the threshold | below the threshold | below the threshold | 4.09 | below the threshold | below the threshold | below the threshold | below the threshold | below the threshold | below the threshold | below the threshold | below the threshold | below the threshold | below the threshold | below the threshold | NHSSSPETTA [TRMT13, Q9NUP7] | pKd [21]: below the threshold; pKd [22]: below the threshold; pKd [23]: below the threshold; pKd [24]: below the threshold; pKd [25]: below the threshold; pKd [26]: 4.02
4.68 | below the threshold | below the threshold | below the threshold | 4.44 | 4.17 | below the threshold | 3.5 | 4.98 | 3.9 | 4.36 | below the threshold | below the threshold | 4.68 | 4.17 | below the threshold | 3.74 | below the threshold | 3.98 | below the threshold | PDGQCTVTEV [RNF146, Q9NTX7] | pKd [21]: 4.04; pKd [22]: 4.13; pKd [23]: below the threshold; pKd [24]: below the threshold; pKd [25]: 4.23; pKd [26]: below the threshold
